Data published in patent US20250066745A1, “MUTANTS AND USE THEREOF” (BGI SHENZHEN, priority 2021, published 2025).

Columns and labels:
Type in all cases: biochemical
Set-up in all cases: key to Activity of mutant relative to wild-type Gaussia luciferase without the signal peptide: ratio of mutant luminescence intensity to wild-type Gaussia luciferase
[1] = Luminescence activity assay of purified Gaussia luciferase mutants on fluoro-coelenterazine; conditions: Substrate f-CTZ (Table 16)
Experimental: In this Example, the protein concentration was determined with a BCA quantitative kit (Thermo Scientific™ Pierce™ BCA Protein Assay Kit) accurately. The purified luciferase obtained in Example 5 was diluted with diluent (50 mM Tris-HCl, pH 8.0, 100 mM NaCl, 0.1% (v/v) Tween-20) to 1 μg/mL. The diluted luciferase, taken for 10 μL, was moved into a black 96-well plate, then added with 90 μL of the substrates coelenterazine, fluoro-coelenterazine or coelenterazine derivative ZS2 (purchased from Biolab) which was diluted into 100 μM with the same diluent, and the luminescence intensity of the plate was read with a self-luminescence module of a microplate reader. The mutation site of the mutant, the measured luminescence intensity, the ratio of luminescence intensities of the advantageous mutants to the wild-type Gaussia luciferase without the signal peptide having the sequence shown in SEQ ID NO: 3 are shown in Table 15. The results of catalytic activity assay of the advantageous mutants relative to the wild-type Gaussia luciferase without the signal peptide having the sequence shown in SEQ ID NO: 3 on substrate coelenterazine are shown in FIG. 6. […] The results of catalytic activity assay of the advantageous mutants relative to the wild-type Gaussia luciferase without the signal peptide having the sequence shown in SEQ ID NO: 3 on substrate fluoro-coelenterazine are shown in FIG. 7.
The new mutant library constructed in Example 7 was screened and tested for substrate specificity. Expression and purification schemes were the same as that in Example 5, and the activity assay scheme was the same as that in Example 6. The respective catalytic activities of combinatorial mutants on coelenterazine, fluoro-coelenterazine or coelenterazine derivative ZS2, and coelenterazine derivative ZS26 (purchased from BIOLAB) were assayed, and comparisons among the substrate specificities of the combinatorial mutants were based on the ratios of catalytic activities on two corresponding substrates.

[2] = Luminescence activity assay of purified Gaussia luciferase mutants on coelenterazine derivative ZS2; conditions: Substrate ZS2 (Table 16)
Outline: (§1)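 Readout: luminescence intensity, as ratio to signal-peptide-free wild-type enzyme. Enzyme 1 μg/mL, substrate 100 μM stock, 10 μL + 90 μL; buffer 50 mM Tris-HCl pH 8.0, 100 mM NaCl, 0.1% Tween-20.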

[3] = Luminescence activity assay of purified Gaussia luciferase mutants on coelenterazine; conditions: Substrate CTZ (Table 16)
Outline: as §1

Row | Molecule | Activity of mutant relative to wild-type Gaussia luciferase without the signal peptide [1] | Activity of mutant relative to wild-type Gaussia luciferase without the signal peptide [2] | Activity of mutant relative to wild-type Gaussia luciferase without the signal peptide [3]
1 | N27Y V29G A30D V31L A32V S33V A36G T37D L40F Y97*: Gaussia luciferase mutant (protein, SIGNAL (1)..(17), Gaussia luciferase mutant) MGVKVLFALICIAVAEAKPTENNEDFYIGDLVVNFGDTDFDADRGKLPGKKLPLEVLKEMEANARKAGCTRGCLICLSHIKCTPKMKKFIPGRCHTEGDKESAQGGIGEAIVDIPEIPGFKDLEPMEQFIAQVDLCVDCTTGCLKGLANVQCSDLLKKWLPQRCATFASKIQGQVDKIKGAGGD | 0.009 | 0.001 | 0.000
2 | K66N P84L E102A S103I A104G E110P D123N L124M V138D: Gaussia luciferase mutant (protein, SIGNAL (1)..(17), Gaussia luciferase mutant) MGVKVLFALICIAVAEAKPTENNEDFNIVAVASNFATTDLDADRGKLPGKKLPLEVLKEMEANARNAGCTRGCLICLSHIKCTLKMKKFIPGRCHTYEGDKAIGQGGIGPAIVDIPEIPGFKNMEPMEQFIAQVDLCDDCTTGCLKGLANVQCSDLLKKWLPQRCATFASKIQGQVDKIKGAGGD | 5.207 | 0.041 | 0.513
3 | P53L: Gaussia luciferase mutant (protein, SIGNAL (1)..(17), Gaussia luciferase mutant) MGVKVLFALICIAVAEAKPTENNEDFNIVAVASNFATTDLDADRGKLPGKKLLLEVLKEMEANARKAGCTRGCLICLSHIKCTPKMKKFIPGRCHTYEGDKESAQGGIGEAIVDIPEIPGFKDLEPMEQFIAQVDLCVDCTTGCLKGLANVQCSDLLKKWLPQRCATFASKIQGQVDKIKGAGGD | 0.010 | 0.002 | 0.007
4 | A42G Q152H T167G S170T G174N K178S A182Y G183A: Gaussia luciferase mutant (protein, SIGNAL (1)..(17), Gaussia luciferase mutant) MGVKVLFALICIAVAEAKPTENNEDFNIVAVASNFATTDLDGDRGKLPGKKLPLEVLKEMEANARKAGCTRGCLICLSHIKCTPKMKKFIPGRCHTYEGDKESAQGGIGEAIVDIPEIPGFKDLEPMEQFIAQVDLCVDCTTGCLKGLANVHCSDLLKKWLPQRCAGFATKIQNQVDSIKGYAGD | 0.657 | 0.001 | 0.568
5 | N27D V29Y A30G V31L A32V S33K A36D L40V: Gaussia luciferase mutant (protein, SIGNAL (1)..(17), Gaussia luciferase mutant) MGVKVLFALICIAVAEAKPTENNEDFDIYGLVKNFDTTDVDADRGKLPGKKLPLEVLKEMEANARKAGCTRGCLICLSHIKCTPKMKKFIPGRCHTYEGDKESAQGGIGEAIVDIPEIPGFKDLEPMEQFIAQVDLCVDCTTGCLKGLANVQCSDLLKKWLPQRCATFASKIQGQVDKIKGAGGD | 0.155 | 0.120 | 0.146

Other lines, results leading:

Row | Activity of mutant relative to wild-type Gaussia luciferase without the signal peptide [1] | Activity of mutant relative to wild-type Gaussia luciferase without the signal peptide [2] | Activity of mutant relative to wild-type Gaussia luciferase without the signal peptide [3] | Molecule
6 | 0.991 | 0.825 | 0.473 | P84A E102A S103I D123L V138D: Gaussia luciferase mutant (protein, SIGNAL (1)..(17), Gaussia luciferase mutant) MGVKVLFALICIAVAEAKPTENNEDFNIVAVASNFATTDLDADRGKLPGKKLPLEVLKEMEANARKAGCTRGCLICLSHIKCTAKMKKFIPGRCHTYEGDKAIAQGGIGEAIVDIPEIPGFKLLEPMEQFIAQVDLCDDCTTGCLKGLANVQCSDLLKKWLPQRCATFASKIQGQVDKIKGAGGD
7 | 1.802 | 1.409 | 1.343 | P84A E102A S103I E110P D123N: Gaussia luciferase mutant (protein, SIGNAL (1)..(17), Gaussia luciferase mutant) MGVKVLFALICIAVAEAKPTENNEDFNIVAVASNFATTDLDADRGKLPGKKLPLEVLKEMEANARKAGCTRGCLICLSHIKCTAKMKKFIPGRCHTYEGDKAIAQGGIGPAIVDIPEIPGFKNLEPMEQFIAQVDLCVDCTTGCLKGLANVQCSDLLKKWLPQRCATFASKIQGQVDKIKGAGGD
8 | 10.315 | 2.637 | 1.073 | K66R P84A E102K A104G E110A L124M V138E: Gaussia luciferase mutant (protein, SIGNAL (1)..(17), Gaussia luciferase mutant) MGVKVLFALICIAVAEAKPTENNEDFNIVAVASNFATTDLDADRGKLPGKKLPLEVLKEMEANARRAGCTRGCLICLSHIKCTAKMKKFIPGRCHTYEGDKKSGQGGIGAAIVDIPEIPGFKDMEPMEQFIAQVDLCEDCTTGCLKGLANVQCSDLLKKWLPQRCATFASKIQGQVDKIKGAGGD
9 | 0.857 | 0.459 | 0.407 | K66R H79K P84K E102D S103I A104G L124M V138E: Gaussia luciferase mutant (protein, SIGNAL (1)..(17), Gaussia luciferase mutant) MGVKVLFALICIAVAEAKPTENNEDFNIVAVASNFATTDLDADRGKLPGKKLPLEVLKEMEANARRAGCTRGCLICLSKIKCTKKMKKFIPGRCHTYEGDKDIGQGGIGEAIVDIPEIPGFKDMEPMEQFIAQVDLCEDCTTGCLKGLANVQCSDLLKKWLPQRCATFASKIQGQVDKIKGAGGD
10 | 3.010 | 0.536 | 0.036 | P84K E102K S103I E110P L124M V138D: Gaussia luciferase mutant (protein, SIGNAL (1)..(17), Gaussia luciferase mutant) MGVKVLFALICIAVAEAKPTENNEDFNIVAVASNFATTDLDADRGKLPGKKLPLEVLKEMEANARKAGCTRGCLICLSHIKCTKKMKKFIPGRCHTYEGDKKIAQGGIGPAIVDIPEIPGFKDMEPMEQFIAQVDLCDDCTTGCLKGLANVQCSDLLKKWLPQRCATFASKIQGQVDKIKGAGGD
11 | 0.009 | 0.001 | 0.000 | P84K E102A: Gaussia luciferase mutant (protein, SIGNAL (1)..(17), Gaussia luciferase mutant) MGVKVLFALICIAVAEAKPTENNEDFNIVAVASNFATTDLDADRGKLPGKKLPLEVLKEMEANARKAGCTRGCLICLSHIKCTKKMKKFIPGRCHTYEGDKASAQGGIGEAIVDIPEIPGFKDLEPMEQFIAQVDLCVDCTTGCLKGLANVQCSDLLKKWLPQRCATFASKIQGQVDKIKGAGGD
12 | 0.404 | 0.347 | 1.007 | Q152H Q163D S170N G174S Q175E D177S A182Y: Gaussia luciferase mutant (protein, SIGNAL (1)..(17), Gaussia luciferase mutant) MGVKVLFALICIAVAEAKPTENNEDFNIVAVASNFATTDLDADRGKLPGKKLPLEVLKEMEANARKAGCTRGCLICLSHIKCTPKMKKFIPGRCHTYEGDKESAQGGIGEAIVDIPEIPGFKDLEPMEQFIAQVDLCVDCTTGCLKGLANVHCSDLLKKWLPDRCATFANKIQSEVSKIKGYGGD
